The values that follow come from paper PMC7871196 (Cell reports, 2021).

For test [1], the target named is 6xHis-tagged WDR5 (24-334) (human, UniProt P61964 24-334). The experiment in a line: AlphaScreen or HTRF.
Test [2] concerns the target recombinant 6xHis-SUMO-WDR5 (22-334) (human, UniProt P61964 22-334). The experiment in a line: pull-down.

Where no end group is shown, it is not given here. The star is where a group is joined. Biotin = O=C1N[C@H]2[C@H](CS[C@H]2CCCCC(=O)*)N1

As to Ac-ARTTSQLYDAVPIQS-NH2 [Peptide acetyl PDPK1 WT 15-mer: Acetyl-ARTTSQLYDAVPIQS-amidated], the binding result in test [1] is “binds”.
Take H-ARTTSQLYDAVPIQSSGGYK(Biotin) [Peptide PDPK1 WT: NH2-ARTTSQLYDAVPIQSS-GGY-K(biotin)]: in test [2], the binding result is recorded as “binds”.
Consider Ac-ARTTSQLYDA-NH2 [Peptide acetyl PDPK1 WT 10-mer: Acetyl - ARTTSQLYDA-amidated], for which the binding result in test [1] was “binds”.
